These are literature values, as cited in publication PMC3711752.

The target in the series is EGF receptor (Homo sapiens) (UniProt P00533).

Sequence of EGF (P01133 971-1023): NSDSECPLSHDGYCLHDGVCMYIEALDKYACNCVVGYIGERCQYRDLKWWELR

Take EGF (from UniProt P01133): the Kd (commonly the constant that tells how readily two partners part at equilibrium) was 3 nM.
